Source: the supplement of paper PMC9112550, “Optimization of the antimicrobial peptide Bac7 by deep mutational scanning” (BMC Biology, 2022)

tested on: Escherichia coli TOP10; assay: shrunken log2 fold change of peptide-encoding DNA abundance (4.5 h post-induction vs induction); higher = less antimicrobial activity (less host growth inhibition); details: time post-induction: 4.5 h; library: site-saturation at positions 5, 18, 19, 20
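Further: peptides expressed intracellularly from a pBAD plasmid library in pooled LB shake-flask culture, induced with 0.3% L-arabinose, DNA abundance read by NGS, three biological replicates, DESeq2 with apeglm shrinkage.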

Row | Sequence | shrunken log2 fold change
1 | RRIRPRPPRLPRPRPRPFMTPRP | -0.511
2 | RRIRPRPPRLPRPRPRPFPLPRP | -0.332
3 | RRIRPRPPRLPRPRPRPFPQPRP | 0.54
4 | RRIRPRPPRLPRPRPRPFQVPRP | -0.0122
5 | RRIRPRPPRLPRPRPRPFRKPRP | -0.0819
6 | RRIRPRPPRLPRPRPRPFRMPRP | -0.134
7 | RRIRPRPPRLPRPRPRPFRPPRP | -0.0197
8 | RRIRPRPPRLPRPRPRPFRVPRP | 0.0659
9 | RRIRPRPPRLPRPRPRPFSGPRP | -0.478
10 | RRIRPRPPRLPRPRPRPFTVPRP | 0.0237
11 | RRIRPRPPRLPRPRPRPFVLPRP | -0.352
12 | RRIRPRPPRLPRPRPRPFYCPRP | -0.212
13 | RRIRPRPPRLPRPRPRPFYDPRP | -0.138
14 | RRIRPRPPRLPRPRPRPFYGPRP | -0.142
15 | RRIRPRPPRLPRPRPRPGACPRP | 0.35
16 | RRIRPRPPRLPRPRPRPGCKPRP | 0.368
17 | RRIRPRPPRLPRPRPRPGDRPRP | 0.0494
18 | RRIRPRPPRLPRPRPRPGECPRP | 0.739
19 | RRIRPRPPRLPRPRPRPGEYPRP | -0.207
20 | RRIRPRPPRLPRPRPRPGGKPRP | 0.12
21 | RRIRPRPPRLPRPRPRPGGTPRP | 0.269
22 | RRIRPRPPRLPRPRPRPGIGPRP | 0.208

Row | Sequence | shrunken log2 fold change
23 | RRIRPRPPRLPRPRPRPGIQPRP | -0.214
24 | RRIRPRPPRLPRPRPRPGIVPRP | -0.0451
25 | RRIRPRPPRLPRPRPRPGLDPRP | 0.0198
26 | RRIRPRPPRLPRPRPRPGLNPRP | 0.0174
27 | RRIRPRPPRLPRPRPRPGLQPRP | -0.0954
28 | RRIRPRPPRLPRPRPRPGMAPRP | 0.204
29 | RRIRPRPPRLPRPRPRPGNDPRP | -0.0392
30 | RRIRPRPPRLPRPRPRPGNEPRP | -0.247
31 | RRIRPRPPRLPRPRPRPGNNPRP | -0.103
32 | RRIRPRPPRLPRPRPRPGNRPRP | -0.0146
33 | RRIRPRPPRLPRPRPRPGPDPRP | 0.28
34 | RRIRPRPPRLPRPRPRPGPHPRP | 0.134
35 | RRIRPRPPRLPRPRPRPGPQPRP | 0.521
36 | RRIRPRPPRLPRPRPRPGRYPRP | 0.37
37 | RRIRPRPPRLPRPRPRPGVIPRP | -0.321
38 | RRIRPRPPRLPRPRPRPGVYPRP | 0.0962
39 | RRIRPRPPRLPRPRPRPGWKPRP | 0.269
40 | RRIRPRPPRLPRPRPRPGWLPRP | 0.468
41 | RRIRPRPPRLPRPRPRPGWQPRP | 0.0481
42 | RRIRPRPPRLPRPRPRPHDPPRP | 0.192
43 | RRIRPRPPRLPRPRPRPHDQPRP | 0.134
44 | RRIRPRPPRLPRPRPRPHEGPRP | 0.0172

Row | Sequence | shrunken log2 fold change
45 | RRIRPRPPRLPRPRPRPHFVPRP | -0.144
46 | RRIRPRPPRLPRPRPRPHGCPRP | 0.0229
47 | RRIRPRPPRLPRPRPRPHGYPRP | -0.0483
48 | RRIRPRPPRLPRPRPRPHIEPRP | -0.646
49 | RRIRPRPPRLPRPRPRPHKMPRP | -0.403
50 | RRIRPRPPRLPRPRPRPHKYPRP | -0.29
51 | RRIRPRPPRLPRPRPRPHLHPRP | -0.0768
52 | RRIRPRPPRLPRPRPRPHNIPRP | -0.546
53 | RRIRPRPPRLPRPRPRPHPCPRP | -0.105
54 | RRIRPRPPRLPRPRPRPHPNPRP | 0.00254
55 | RRIRPRPPRLPRPRPRPHRGPRP | -0.0385
56 | RRIRPRPPRLPRPRPRPHSCPRP | -0.11
57 | RRIRPRPPRLPRPRPRPHSGPRP | -0.169
58 | RRIRPRPPRLPRPRPRPHTIPRP | -0.39
59 | RRIRPRPPRLPRPRPRPIAIPRP | 0.247
60 | RRIRPRPPRLPRPRPRPIDLPRP | -0.0858
61 | RRIRPRPPRLPRPRPRPIEYPRP | 0.0392
62 | RRIRPRPPRLPRPRPRPIGIPRP | 0.208
63 | RRIRPRPPRLPRPRPRPIICPRP | -0.188
64 | RRIRPRPPRLPRPRPRPIIDPRP | -0.297
65 | RRIRPRPPRLPRPRPRPIIYPRP | -0.256
66 | RRIRPRPPRLPRPRPRPIKFPRP | -0.908

Row | Sequence | shrunken log2 fold change
67 | RRIRPRPPRLPRPRPRPIKKPRP | -0.00206
68 | RRIRPRPPRLPRPRPRPIKTPRP | 0.0751
69 | RRIRPRPPRLPRPRPRPILGPRP | -0.148
70 | RRIRPRPPRLPRPRPRPIMFPRP | -0.37
71 | RRIRPRPPRLPRPRPRPIMLPRP | -0.114
72 | RRIRPRPPRLPRPRPRPINGPRP | -0.482
73 | RRIRPRPPRLPRPRPRPINWPRP | -0.241
74 | RRIRPRPPRLPRPRPRPIPEPRP | 1.27
75 | RRIRPRPPRLPRPRPRPIPTPRP | 0.00223
76 | RRIRPRPPRLPRPRPRPIQDPRP | -0.239
77 | RRIRPRPPRLPRPRPRPIRGPRP | 0.182
78 | RRIRPRPPRLPRPRPRPIRTPRP | 0.289
79 | RRIRPRPPRLPRPRPRPIRYPRP | 0.00275
80 | RRIRPRPPRLPRPRPRPISAPRP | -0.0726
81 | RRIRPRPPRLPRPRPRPISEPRP | -0.303
82 | RRIRPRPPRLPRPRPRPISSPRP | -0.0101
83 | RRIRPRPPRLPRPRPRPITTPRP | -0.139
84 | RRIRPRPPRLPRPRPRPIVHPRP | -0.155
85 | RRIRPRPPRLPRPRPRPIVQPRP | -0.135
86 | RRIRPRPPRLPRPRPRPIVVPRP | -0.134
87 | RRIRPRPPRLPRPRPRPIWDPRP | -0.0628
88 | RRIRPRPPRLPRPRPRPIYCPRP | -0.102

Row | Sequence | shrunken log2 fold change
89 | RRIRPRPPRLPRPRPRPIYHPRP | -0.466
90 | RRIRPRPPRLPRPRPRPIYSPRP | -0.225
91 | RRIRPRPPRLPRPRPRPKARPRP | 0.691
92 | RRIRPRPPRLPRPRPRPKDVPRP | -0.115
93 | RRIRPRPPRLPRPRPRPKEAPRP | -0.0122
94 | RRIRPRPPRLPRPRPRPKEIPRP | -0.0621
95 | RRIRPRPPRLPRPRPRPKETPRP | 0.0101
96 | RRIRPRPPRLPRPRPRPKGMPRP | 0.129
97 | RRIRPRPPRLPRPRPRPKGNPRP | -0.097
98 | RRIRPRPPRLPRPRPRPKGSPRP | 0.0684
99 | RRIRPRPPRLPRPRPRPKHRPRP | 0.0187
100 | RRIRPRPPRLPRPRPRPKIFPRP | -0.0976
101 | RRIRPRPPRLPRPRPRPKIHPRP | -0.427
102 | RRIRPRPPRLPRPRPRPKIKPRP | -0.0894
103 | RRIRPRPPRLPRPRPRPKLEPRP | 0.121
104 | RRIRPRPPRLPRPRPRPKLIPRP | -0.0783
105 | RRIRPRPPRLPRPRPRPKLSPRP | 0.331
106 | RRIRPRPPRLPRPRPRPKMFPRP | 0.149
107 | RRIRPRPPRLPRPRPRPKMLPRP | -0.222
108 | RRIRPRPPRLPRPRPRPKMRPRP | 0.903
109 | RRIRPRPPRLPRPRPRPKNLPRP | -0.0674
